The test system of series [1] is Fyn. Nature of the series: Fyn kinase activity after NRG1 stimulation of cells. The class given is cell-based. How it is done: To test if the observed increase in Fyn Tyr420 phosphorylation was associated with enhanced catalytic activity, Fyn kinase activity was measured after NRG1 stimulation. Fyn kinase activity was increased within 5 minutes of NRG1 stimulation, reached maximum activity after 7 minutes, and returned to pre-stimulation levels within 15 minutes.

The target in series [2] is T1, ErbB4 (Homo sapiens, UniProt Q15303).
T1 construct: host or cells: BE(2)-M17 neuroblastoma, retinoic-acid differentiated
Put plainly: ErbB4 tyrosine phosphorylation in differentiated BE(2)-M17 neuroblastoma cells. Conditions: stimulation for 10 minutes. Type of series: cell-based. As to the method: (§1) Studies were carried out to determine if NRG1 signaling, mediated by activation of Src-family kinases, results in changes in the phosphorylation state of regulatory tyrosine residues on NR2B. BE(2)-M 17 human neuroblastoma cells (ECACC No. 95011816) have a neuron-like appearance after differentiation for 72 hours in the presence of 10 μM retinoic acid (RA; Sigma, St. Louis, Mo.) (Hanada et al., Can. Res. 53: 4978-4986, 1993). […] As RA differentiation induces NR2B, but not NR2A, expression, it was expected that the functional NMDA receptor channels expressed in these cells comprised of NR1 and NR2B subunits. Stimulation of differentiated BE(2)-M17 cells with NRG1 for 10 minutes increased ErbB4 tyrosine phosphorylation (FIG. 2), increased Fyn/Src Tyr420 phosphorylation (indicative of increased Src-family kinase activity), and increased Pyk2 Tyr402 phosphorylation. Pyk2 Tyr402 is an auto-phosphorylation site involved in Src-family kinase recruitment (Dikic et al., Nature 383: 547-550, 1996). In addition, a coincident increase in NR2B Tyr1472 phosphorylation was also observed (FIG. 2). Thus, NRG1 signaling through ErbB4 modulates NR2B tyrosine phosphorylation in neuroblastoma cells.

In series [3] the test system is NMDA receptor NR2B subunit. Nature of the series: NR2B tyrosine phosphorylation in SK-N-BE(2)-M17 cells grown with retinoic acid. The class given is cell-based. Conditions: immunoprecipitation, anti-phosphotyrosine Western blot. How it is done:
To determine if D150838 modulates tyrosine phosphorylation of the NMDA receptor, SK-N-BE(2)-M17 cells were grown for 72 house in the presence of retinoic acid to induce expression of the NMDA receptor NR2B subunit. The cells were contacted with NRG1 or D150838, the NR2B subunit was immunoprecipitated, and the level of tyrosine phosphorylation was detected by Western blot analysis with an anti-phosphotyrosine antibody. […] Phosphorylation of tyrosine residue 1472 was detected after exposure to D150838.
Background: Immunoblotting shows a protein as a band on a membrane.

The test system of a further series is MAPK p44/42. Put plainly: MAPK p44/42 activation in HEK293 cells stably expressing ErbB4 and Fyn-V5. The class given is cell-based. Conditions: 7.2 nM NRG1 for 10 minutes.
Another series concerns Pyk2. Put plainly: Pyk2 Tyr402 phosphorylation in differentiated BE(2)-M17 neuroblastoma cells. The class given is cell-based, human. Conditions: stimulation for 10 minutes. As to the method:
as §1

In series [4] the test system is ErbB4. Nature of the series: ErbB4 tyrosine phosphorylation in HEK293 cells (Western blot). Conditions: HEK293 cells expressing ErbB4 and Fyn-V5, 7.2 nM NRG1 for 10 minutes. Type of series: cell-based. How it is done: (§2) To determine whether NRG1-induced activation of ErbB4 leads to Fyn phosphorylation, NRG1 exposure of HEK293 cells stably expressing ErbB4 and Fyn-V5 were activated with 7.2 nM NRG1 (R&D Systems; Minneapolis, Minn.) for 10 minutes and lysed using RIPA buffer. […] There was no change in Fyn Tyr531 phosphorylation. […] Fyn is activated either by dephophorylation of Tyr531 with loss of the SH2 domain interaction, or through displacement of the SH2 domain by a second tyrosine phosphorylated binding partner allowing auto-phosphorylation on the Fyn activation loop residue Tyr420. Alternatively, Fyn can be phosphorylated on Tyr420 and activated directly by a second kinase. Thus, the NRG1-stimulated increase in Fyn Tyr420 phosphorylation may be through stimulation of Fyn auto-phosphorylation, through phosphorylation of Fyn by ErbB4, or through phosphorylation of Fyn by an ErbB4 activated tyrosine kinase other than Fyn.
Thus, NRG1-induced ErbB4 phosphorylation under conditions in which Fyn and related Src-family kinases were inhibited by PP2 (selective Src-family kinase inhibitor described above). […] This may result in the creation of additional SH2 domain docking sites, thus leading to further activation of Fyn as part of a positive feedback mechanism involving NRG1, ErbB4 and Src-family kinases.

Series [5] has as its system Fyn. Nature of the series: Fyn phosphorylation in HEK293 cells stably expressing ErbB4 and Fyn-V5 (Western blot). The class given is cell-based. As to the method: as §2
These alternatives were distinguished by applying PP2 (25 nM; Calbiochem, San Diego, Calif.) a relatively selective Src-family kinase inhibitor, to inhibit Fyn while ErbB4 signaling was stimulated with NRG1. […] Fyn was phosphorylated at a low level on Tyr420 under basal conditions. […] After NRG1 stimulation, an increase in Fyn Tyr420 phosphorylation was seen, even under conditions in which PP2 was used to inhibit p59 Fyn autophosphorylation. […] Thus, ErbB4 or an ErbB4 activated tyrosine kinase may phosphorylate Fyn on Tyr420 in response to NRG1 stimulation and activate the kinase directly.

The test system of the next series is Fyn/Src. Put plainly: Fyn/Src Tyr420 phosphorylation in differentiated BE(2)-M17 neuroblastoma cells. Type of series: cell-based, human. The following applies: stimulation for 10 minutes. How it is done:
as §1

The subject of series [6] is MAPK pathway (serum response element luciferase reporter). Nature of the series: SRE-luciferase reporter gene assay in CHO-K1 cells expressing ErbB4 or ErbB4 and Fyn. Type of series: cell-based. How it is done:
CHO-K1 cells expressing only ErbB4 were constructed, and subsequently a subclone co-expressing Fyn was identified. The parental ErbB4 expressing cell line and the subclone co-expressing ErbB4 and Fyn continued to express similar levels of ErbB4 as shown by Western blot. The cells also contained a reporter gene sensitive to MAPK pathway activation, the luciferase gene under the control of a promoter containing a serum response element (SRE). The cells were activated for 4 hours with 0-57.6 nM and the luciferase assay was performed using the Dual-Luciferase Reported assay system (Promega, Madison, Wis.) according to the manufacturer's instructions. Induction of the luciferase reporter gene by NRG1 was amplified two-fold (p<0.05) in cells co-expressing ErbB4 and Fyn as compared to cells expressing only ErbB4. No significant differences in baseline luciferase activity or in NRG1 EC50 (˜1 nM) were found between the two cell lines.
(In general: Reporter assays use an easily measured gene product as a stand-in for the process of interest.)

The subject of series [7] is ErbB4. Nature of the series: ErbB4 tyrosine phosphorylation and kinase activity in CHO-K1 cells expressing ErbB4. Type of series: cell-based. As to the method:
The initial step of NRG1 signaling is activation of ErbB4 kinase activity and auto-phosphorylation on tyrosine residues. An increase in ErbB4 tyrosine phosphorylation and associated kinase activity was observed when CHO-K1 cells (ECACC Accession No. 85051005) expressing ErbB4 were exposed to NRG1 (recombinant human HRG-αEGF domain; R&D Systems, Minneapolis, Minn.) in serum free medium for 0-15 minutes. Following immunoprecipitation of ErbB4, kinase activity was measured using a peptide substrate. Maximum ErbB4 kinase activity was detected within 1 minute of NRG1 exposure but returned to the pre-stimulation level by 15 minutes.
Target sequence in this assay (Q15303 26-1308): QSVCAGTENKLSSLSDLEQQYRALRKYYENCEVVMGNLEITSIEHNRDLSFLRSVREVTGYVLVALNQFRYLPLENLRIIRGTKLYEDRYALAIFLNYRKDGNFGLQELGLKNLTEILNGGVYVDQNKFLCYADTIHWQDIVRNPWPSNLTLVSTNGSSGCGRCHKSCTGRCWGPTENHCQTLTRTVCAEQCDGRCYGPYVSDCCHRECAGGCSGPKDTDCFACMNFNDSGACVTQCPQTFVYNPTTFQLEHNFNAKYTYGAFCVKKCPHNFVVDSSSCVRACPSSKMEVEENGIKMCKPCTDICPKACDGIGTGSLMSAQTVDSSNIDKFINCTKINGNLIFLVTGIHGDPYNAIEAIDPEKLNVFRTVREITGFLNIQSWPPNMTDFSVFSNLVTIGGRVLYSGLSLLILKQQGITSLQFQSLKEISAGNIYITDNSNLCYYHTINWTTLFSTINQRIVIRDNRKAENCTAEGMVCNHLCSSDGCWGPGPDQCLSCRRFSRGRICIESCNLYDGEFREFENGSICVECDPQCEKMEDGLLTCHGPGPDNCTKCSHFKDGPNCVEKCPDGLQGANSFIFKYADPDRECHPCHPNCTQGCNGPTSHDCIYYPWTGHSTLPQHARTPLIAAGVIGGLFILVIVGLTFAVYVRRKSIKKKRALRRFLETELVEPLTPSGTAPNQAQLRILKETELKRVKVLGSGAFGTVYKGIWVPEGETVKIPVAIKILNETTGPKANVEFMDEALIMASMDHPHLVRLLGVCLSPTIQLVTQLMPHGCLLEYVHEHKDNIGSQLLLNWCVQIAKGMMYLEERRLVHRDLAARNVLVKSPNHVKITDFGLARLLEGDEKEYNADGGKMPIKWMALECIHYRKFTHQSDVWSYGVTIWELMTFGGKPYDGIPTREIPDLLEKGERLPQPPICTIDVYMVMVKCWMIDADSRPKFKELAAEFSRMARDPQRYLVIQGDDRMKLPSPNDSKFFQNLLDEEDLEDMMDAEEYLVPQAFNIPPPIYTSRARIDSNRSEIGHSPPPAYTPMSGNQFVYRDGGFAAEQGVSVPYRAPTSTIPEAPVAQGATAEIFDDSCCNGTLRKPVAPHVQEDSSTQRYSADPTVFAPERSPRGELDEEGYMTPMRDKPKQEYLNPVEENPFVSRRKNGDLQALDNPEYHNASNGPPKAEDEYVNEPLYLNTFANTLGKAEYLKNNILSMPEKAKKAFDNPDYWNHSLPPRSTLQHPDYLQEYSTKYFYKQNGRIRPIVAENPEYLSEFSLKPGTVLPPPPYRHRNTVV

The subject of the next series is NR2B. Put plainly: NR2B Tyr1472 phosphorylation in differentiated BE(2)-M17 neuroblastoma cells. The class given is cell-based, human. The following applies: stimulation for 10 minutes. How it is done: as §1

From patent publication US20060029546A1, “Materials and methods for identifying anti-schizophrenic agents” (deCODE Genetics, Inc., priority 2004, published 2006) come the findings set out here.

In general, EC50 refers to the concentration that produces a half-maximal response.

Fyn, sequence (P06241 whole entry, species assumed): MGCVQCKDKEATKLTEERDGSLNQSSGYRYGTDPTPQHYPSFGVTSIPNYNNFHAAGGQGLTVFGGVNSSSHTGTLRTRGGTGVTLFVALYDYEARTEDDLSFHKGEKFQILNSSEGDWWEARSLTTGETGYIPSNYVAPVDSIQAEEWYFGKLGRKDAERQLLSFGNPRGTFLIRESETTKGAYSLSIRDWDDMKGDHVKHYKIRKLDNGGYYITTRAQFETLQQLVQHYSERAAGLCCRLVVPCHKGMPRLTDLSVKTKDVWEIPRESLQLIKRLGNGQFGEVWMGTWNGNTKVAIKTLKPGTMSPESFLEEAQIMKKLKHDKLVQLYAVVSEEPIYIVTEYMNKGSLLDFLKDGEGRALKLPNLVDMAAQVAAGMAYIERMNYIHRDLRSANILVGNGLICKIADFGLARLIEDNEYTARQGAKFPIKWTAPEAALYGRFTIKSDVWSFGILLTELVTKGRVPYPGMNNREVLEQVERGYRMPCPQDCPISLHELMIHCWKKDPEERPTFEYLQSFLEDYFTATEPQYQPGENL
T1 sequence (Q15303 26-1308): as the sequence (Q15303 26-1308) above

B1: NRG1: recombinant human HRG-αEGF domain; R&D Systems; polypeptide growth factor Neuregulin 1 (protein)
chain: SHLVKCAEKEKTFCVNGGECFMVKDLSNPSRYLCKCQPGFTGARCTENVPMKVQNQEKAEELYQK
Regarding B1, in the series with Fyn [1] (after NRG1 stimulation), the “time of maximum Fyn kinase activity” value worked out at 7 min, the “time of return of Fyn kinase activity to pre-stimulation levels” value is at most 15 min and the “time to increased Fyn kinase activity” value is at most 5 min. For the same molecule, the Fyn kinase activity result in the series on Fyn [1] (cells co-expressing Fyn and catalytically inactive ErbB4 D843A mutant) is “No increase”. Moreover, the ErbB4 tyrosine phosphorylation entry with ErbB4 [2] is given as “increased”. The “tyrosine phosphorylation of the NR2B subunit” value in series [3] is recorded as “induced tyrosine phosphorylation”. Besides, the “MAPK p44/42 Thr202/Tyr204 phosphorylation” value in the series on MAPK p44/42 was “increase”. In addition, the “Pyk2 Tyr402 phosphorylation” value in the series on Pyk2 is “increased”. Moreover, the ErbB4 tyrosine phosphorylation entry with ErbB4 [4] is given as “tyrosine phosphorylation of ErbB4”. Moreover, in the series with Fyn [5] (7.2 nM NRG1 for 10 minutes), the “Fyn Tyr420 phosphorylation” value is listed as “phosphorylation of Fyn on Tyr420” and the “Fyn Tyr531 phosphorylation” value was “no change”. Moreover, the “Fyn Tyr420 phosphorylation after NRG1 stimulation with PP2 present” value in the series on Fyn [5] (PP2 used to inhibit Fyn autophosphorylation) was “increase”. In addition, the “Fyn/Src Tyr420 phosphorylation” value in the series with Fyn/Src is “increased”. Besides, the EC50 in series [6] (4 hours, 0-57.6 nM, no significant difference between the two cell lines, read-out: EC50, luciferase reporter induction) was about 1 nM. In series [6] (p<0.05), the “amplification of luciferase reporter induction in cells co-expressing ErbB4 and Fyn compared to cells expressing only ErbB4” value is “two-fold”. Moreover, in the series with ErbB4 [7] (after NRG1 exposure), the “time of return of ErbB4 kinase activity to pre-stimulation level” value is at most 15 min and the “time to maximum ErbB4 kinase activity” value is at most 1 min. Also, the “ErbB4 tyrosine phosphorylation and associated kinase activity” value in the series with ErbB4 [7] (serum free medium, 0-15 minutes) is given as “increase”. In the series with NR2B, the “NR2B Tyr1472 phosphorylation” value is given as “increase”.
